Source: patent publication US20210163614A1 (GMAX BIOPHARM, published 2021)

B1: hAPJ antibody L4H4 (antibody, V domains shown)
VH: EIKLVESGGGLVKPRGSLKLSCAASGFTFSSYAMSWVRQTPEKRLEWVASISSGGSIYLPDSLKGRFTISRDNAWNILYLQMNSLKSEDTAMYYCTRGRGNSSAWFAYWGQGTLVTVSA
VL: DVLMTQTPLSLPVSLGDQASISCRSDQSLVHRTGNTHLDWYLQKPGQSPKLLIYKVSNRFSGVPDRFSGSGSGTDFTLKISRVEAEDLGVYYCFQASHIPFTFGSGTKLEIKR
notes: also called mouse ascites antibody L4H4
B2: hAPJ antibody L1H1 (antibody, V domains shown)
VH: EVQLIETGGGLVQPTGSLQLSCAASGFPFNINAMNWVRQAPGKGLEWVARIRSKSNNYATYYADSVKDRFTISRDDSQSILYLQMNNLKTEDSAMYFCVRGPYLYAMDYWGQGTSVTVSS
VL: DIQMNQSPSSLSASLGDTITITCHASQNIHVWLSWYQQKPGNIPKLLIYKASNLHTGVPSRFSGSGSGTGFTLTISSLQPEDIATYYCQQGHSYPLTFGGGTKLEIKR
notes: also called mouse ascites antibody L1H1
B3: fusion protein of hAPJ antibody L5H5 and Linker2-Elabela-11 (protein, not shown: a dimerising Fc or GST; large carriers)
heavy (part 1 of 2): EIQLVESGGGLVKPGGSLRLSCAASGFTFSSYAMSWVRQAPGKGLEWVASISSGGSIYLPDSLKGRFTISRDNAKNSLYLQMNSLRAEDTAVYYCTRGRGNSSAWFAYWGQGTLVTVSS
heavy (part 2 of 2): GGGGSGGGGSCMPLHSRVPFP
light: DVLMTQSPLSLPVTLGQPASISCRSDQSLVHRTGNTHLDWYQQRPGQSPRLLIYKVSNRFSGVPDRFSGSGSGTDFTLKISRVEAEDVGVYYCFQASHIPFTFGQGTKVEIKR
B4: fusion protein of hAPJ antibody L5H5 and Linker2-EA3 (protein, not shown: a dimerising Fc or GST; large carriers)
heavy (part 1 of 2): EIQLVESGGGLVKPGGSLRLSCAASGFTFSSYAMSWVRQAPGKGLEWVASISSGGSIYLPDSLKGRFTISRDNAKNSLYLQMNSLRAEDTAVYYCTRGRGNSSAWFAYWGQGTLVTVSS
heavy (part 2 of 2): GGGGSGGGGSQRRCMPLHSRVPMPF
light: DVLMTQSPLSLPVTLGQPASISCRSDQSLVHRTGNTHLDWYQQRPGQSPRLLIYKVSNRFSGVPDRFSGSGSGTDFTLKISRVEAEDVGVYYCFQASHIPFTFGQGTKVEIKR
B5: fusion protein of hAPJ antibody L5H5 and Linker2-EA1 (protein, not shown: a dimerising Fc or GST; large carriers)
heavy (part 1 of 2): EIQLVESGGGLVKPGGSLRLSCAASGFTFSSYAMSWVRQAPGKGLEWVASISSGGSIYLPDSLKGRFTISRDNAKNSLYLQMNSLRAEDTAVYYCTRGRGNSSAWFAYWGQGTLVTVSS
heavy (part 2 of 2): GGGGSGGGGSQRPRLHSRVPFP
light: DVLMTQSPLSLPVTLGQPASISCRSDQSLVHRTGNTHLDWYQQRPGQSPRLLIYKVSNRFSGVPDRFSGSGSGTDFTLKISRVEAEDVGVYYCFQASHIPFTFGQGTKVEIKR
B6: fusion protein of hAPJ antibody L5H5 and Linker2-EA2 (protein, not shown: a dimerising Fc or GST; large carriers)
heavy (part 1 of 2): EIQLVESGGGLVKPGGSLRLSCAASGFTFSSYAMSWVRQAPGKGLEWVASISSGGSIYLPDSLKGRFTISRDNAKNSLYLQMNSLRAEDTAVYYCTRGRGNSSAWFAYWGQGTLVTVSS
heavy (part 2 of 2): GGGGSGGGGSQRPRLSHKGPFP
light: DVLMTQSPLSLPVTLGQPASISCRSDQSLVHRTGNTHLDWYQQRPGQSPRLLIYKVSNRFSGVPDRFSGSGSGTDFTLKISRVEAEDVGVYYCFQASHIPFTFGQGTKVEIKR
B7: fusion protein of hAPJ antibody L5H5 and Linker2-EA4 (protein, not shown: a dimerising Fc or GST; large carriers)
heavy (part 1 of 2): EIQLVESGGGLVKPGGSLRLSCAASGFTFSSYAMSWVRQAPGKGLEWVASISSGGSIYLPDSLKGRFTISRDNAKNSLYLQMNSLRAEDTAVYYCTRGRGNSSAWFAYWGQGTLVTVSS
heavy (part 2 of 2): GGGGSGGGGSQRRCLSHKGPMPF
light: DVLMTQSPLSLPVTLGQPASISCRSDQSLVHRTGNTHLDWYQQRPGQSPRLLIYKVSNRFSGVPDRFSGSGSGTDFTLKISRVEAEDVGVYYCFQASHIPFTFGQGTKVEIKR
B8: fusion protein of hAPJ antibody L5H5 and Linker2-EA5 (protein, not shown: a dimerising Fc or GST; large carriers)
heavy (part 1 of 2): EIQLVESGGGLVKPGGSLRLSCAASGFTFSSYAMSWVRQAPGKGLEWVASISSGGSIYLPDSLKGRFTISRDNAKNSLYLQMNSLRAEDTAVYYCTRGRGNSSAWFAYWGQGTLVTVSS
heavy (part 2 of 2): GGGGSGGGGSQRRCMPLHSRVPAP
light: DVLMTQSPLSLPVTLGQPASISCRSDQSLVHRTGNTHLDWYQQRPGQSPRLLIYKVSNRFSGVPDRFSGSGSGTDFTLKISRVEAEDVGVYYCFQASHIPFTFGQGTKVEIKR

target: T1, human APJ (apelin receptor) (human, UniProt P35414 1-380); assay: FACS on CHO-DHFR-hAPJ cells, antibody at 500 nM and 4 nM, blank CHO-DHFR- cells as negative control
T1 construct: Expressed on the membrane of stably transfected CHO-DHFR- cells; also called hAPJ; APJ receptor
T1 sequence: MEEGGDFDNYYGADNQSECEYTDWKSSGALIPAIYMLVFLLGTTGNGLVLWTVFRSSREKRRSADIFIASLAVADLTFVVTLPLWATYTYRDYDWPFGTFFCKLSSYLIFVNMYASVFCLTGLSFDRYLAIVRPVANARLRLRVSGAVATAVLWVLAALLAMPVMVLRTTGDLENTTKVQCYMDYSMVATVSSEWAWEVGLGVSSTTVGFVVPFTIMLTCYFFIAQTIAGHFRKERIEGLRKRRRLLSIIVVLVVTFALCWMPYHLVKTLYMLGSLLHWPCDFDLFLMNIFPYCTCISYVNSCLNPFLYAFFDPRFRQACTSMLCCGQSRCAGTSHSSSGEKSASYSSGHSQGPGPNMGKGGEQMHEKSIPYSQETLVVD
Protocol: PBS containing EDTA was used to detach and collect 10⁵ CHO-DHFR-hAPJ cells into 1.5 mL EP tubes. The supernatant was removed after centrifugation. The negative control sample was resuspended with a FACS loading buffer (PBS, 2% FBS). For the positive control, 200 μL antibody supernatant with certain concentration was added to resuspend cells and then incubated at room temperature; the cells were then centrifuged at 1500 rpm to remove the supernatant, washed with a FACS loading buffer and centrifuged again. The cells were resuspended followed by addition (200 μL/well) of a FITC labeled goat anti-mouse fluorescent secondary antibody at 1:50 dilution and incubated at room temperature for 30 min in the dark. Supernatant was removed after centrifugation, cells were washed with FACS loading buffer, centrifuged again and resuspended with the loading buffer for analysis.

Question: Does B1 bind?
Answer: Result: binds

Question: Does B2 bind?
Answer: Result: binds

target: T1, human APJ (apelin receptor); assay: cell-based or functional assay

Question: With B3 as the binder, how does the EC50, reporter gene assay, activation of Elabela/APJ signaling pathway read?
Answer: Its EC50, reporter gene assay, activation of Elabela/APJ signaling pathway is 3.61 nM.

Question: B4 was tested. Which EC50, reporter gene assay, activation of Elabela/APJ signaling pathway did it give?
Answer: The EC50, reporter gene assay, activation of Elabela/APJ signaling pathway was 20.3 nM.

Question: With B5 as the binder, how does the EC50, reporter gene assay, activation of Elabela/APJ signaling pathway read?
Answer: The EC50, reporter gene assay, activation of Elabela/APJ signaling pathway was 4.95 nM.

Question: With B6 as the binder, how does the EC50, reporter gene assay, activation of Elabela/APJ signaling pathway read?
Answer: Its EC50, reporter gene assay, activation of Elabela/APJ signaling pathway is 2.16 nM.

Question: For B7, which EC50, reporter gene assay, activation of Elabela/APJ signaling pathway is on record?
Answer: Its EC50, reporter gene assay, activation of Elabela/APJ signaling pathway is 5.4 nM.

Question: How did the EC50, reporter gene assay, activation of Elabela/APJ signaling pathway turn out when B8 was run?
Answer: The EC50, reporter gene assay, activation of Elabela/APJ signaling pathway was 2.55 nM.
